Data from US20240400670A1 (JIANGSU HENGRUI PHARMACEUTICALS, published 2024).

Legend:
[1] = target: T1, human IL-23 (Sino Biological, CT048-H08H) (human, UniProt Q9NPF7 20-189; P29460 23-328); assay: cell-based or functional assay
T1 sequence (looked up) 1: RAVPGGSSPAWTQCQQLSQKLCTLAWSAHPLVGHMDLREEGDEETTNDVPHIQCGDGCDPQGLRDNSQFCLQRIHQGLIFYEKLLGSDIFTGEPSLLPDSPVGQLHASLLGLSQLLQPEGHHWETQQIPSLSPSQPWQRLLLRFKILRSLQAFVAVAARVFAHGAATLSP
T1 sequence (looked up) 2: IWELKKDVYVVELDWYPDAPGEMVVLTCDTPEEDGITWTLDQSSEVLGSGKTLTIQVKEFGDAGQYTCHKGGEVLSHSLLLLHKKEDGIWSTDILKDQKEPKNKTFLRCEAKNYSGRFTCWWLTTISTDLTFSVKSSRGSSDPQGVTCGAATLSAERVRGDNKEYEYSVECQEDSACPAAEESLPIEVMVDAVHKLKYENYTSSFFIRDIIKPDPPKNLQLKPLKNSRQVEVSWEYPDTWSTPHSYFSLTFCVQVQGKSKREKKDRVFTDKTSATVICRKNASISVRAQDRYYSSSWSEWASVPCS

[2] = target: T2, IL-23 (R&D Systems, 1290-IL-010) (UniProt Q9NPF7 20-189; P29460 23-328); assay: cell-based or functional assay
T2 sequence (looked up) 1: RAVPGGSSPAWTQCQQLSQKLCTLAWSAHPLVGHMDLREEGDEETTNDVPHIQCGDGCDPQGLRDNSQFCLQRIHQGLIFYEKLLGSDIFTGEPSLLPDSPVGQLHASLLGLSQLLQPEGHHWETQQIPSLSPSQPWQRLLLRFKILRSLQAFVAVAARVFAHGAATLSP
T2 sequence (looked up) 2: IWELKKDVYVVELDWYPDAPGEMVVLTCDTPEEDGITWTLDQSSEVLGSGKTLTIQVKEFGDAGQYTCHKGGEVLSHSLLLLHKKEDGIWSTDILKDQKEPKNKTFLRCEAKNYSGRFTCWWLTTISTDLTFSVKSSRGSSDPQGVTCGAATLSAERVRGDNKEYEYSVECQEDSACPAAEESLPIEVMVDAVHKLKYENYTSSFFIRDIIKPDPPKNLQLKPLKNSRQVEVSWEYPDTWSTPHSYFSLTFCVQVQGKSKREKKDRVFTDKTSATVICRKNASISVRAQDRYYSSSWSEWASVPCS

[3] = target: T3, mouse IL-23 (R&D Systems, 1887-ML/CF) (mouse, UniProt Q9EQ14 22-196; P43432 23-335); assay: SPR (Biacore), Protein A capture of sample
T3 construct: also called Mouse IL-23 p19
T3 sequence (looked up) 1: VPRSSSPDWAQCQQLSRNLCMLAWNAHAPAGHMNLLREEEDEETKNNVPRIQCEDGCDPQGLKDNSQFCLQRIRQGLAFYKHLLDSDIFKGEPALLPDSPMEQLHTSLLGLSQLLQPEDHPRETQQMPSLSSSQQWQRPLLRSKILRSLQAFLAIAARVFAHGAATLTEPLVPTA
T3 sequence (looked up) 2: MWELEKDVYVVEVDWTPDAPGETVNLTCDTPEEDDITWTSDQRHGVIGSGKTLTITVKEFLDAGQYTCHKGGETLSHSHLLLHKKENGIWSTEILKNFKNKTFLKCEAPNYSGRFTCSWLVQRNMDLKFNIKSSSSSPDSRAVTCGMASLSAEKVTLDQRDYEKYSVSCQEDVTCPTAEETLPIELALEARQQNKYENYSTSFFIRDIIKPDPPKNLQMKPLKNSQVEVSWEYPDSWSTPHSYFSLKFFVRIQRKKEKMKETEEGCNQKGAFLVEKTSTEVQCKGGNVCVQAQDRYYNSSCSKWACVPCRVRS

[4] = target: T1, human IL-23 (Sino Biological, …); assay: ELISA, sample coated, IL-23 titrated, anti-His-HRP
Description: (§1) The specific procedures are as follows:
(§2) The test sample was diluted to 2 μg/mL with a PBS (BasalMedia, B320) buffer at pH 7.4 and added to a 96-well microplate (Coming, 3590) at 100 μL/well. The plate was incubated at 4° C. overnight. After the liquid was discarded, 5 % skim milk (BD, 232100) diluted with PBS was added at 300 μL/well for blocking, and the mixture was incubated at 37° C. for 2 h. After the blocking was completed, the blocking solution was discarded, and the plate was washed 3 times with a PBST buffer (pH 7.4, PBS containing 0.1 % tween-20). […] After the incubation, the plate was washed 3 times with PBST. […] After the plate was washed 3 times with PBST, a TMB chromogenic substrate (KPL, 5120-0077) was added at 100 μL/well, and the mixture was incubated at room temperature for 10⁻¹⁵ min, and then 1 M H₂SO₄ was added at 50 μL/well to terminate the reaction. The absorbance values at 450 nm were taken using a microplate reader. The binding curves of antibodies to antigens were fitted using software, and the EC₅₀ values were calculated.

[5] = target: cynomolgus monkey IL-23 (Acro Biosystems, ILB-CM52W8) (cynomolgus monkey, UniProt H6WS56 20-189); assay: SPR (Biacore), Protein A capture of sample, 1:1 model
Description: (§3) A certain amount of test sample was subjected to affinity capture by a biosensor chip Protein A (GE, 29127556), and then antigens at a series of concentration gradients were allowed to flow on the surface of the chip. The reaction signals were detected in real time by using Biacore (GE, 8 K) to obtain association and dissociation curves. After the dissociation was completed for each cycle, the biochip was washed and regenerated with a 10 mM glycine-hydrochloric acid solution at pH 1.5 (GE, BR-1003-54). Fitting was performed based on the experimental data using BlAevaluation version 4.1 software with a 1:1 model, and affinity values were obtained.

[6] = target: T1, human IL-23 (Sino Biological, …); assay: as above
Description: as §3

[7] = target: T1, human IL-23 (Sino Biological, …); assay: competition ELISA, blocks IL-23/IL-23R; IL-23R coated, biotin-IL-23 + sample gradient
Description: as §1
(§4) The receptor protein was diluted to 2 μg/mL with a PBS (BasalMedia, B320) buffer at pH 7.4 and added to a 96-well microplate (Corning, 3590) at 100 μL/well. The plate was incubated at 4° C. overnight. After the liquid was discarded, 1 % Casein blocking solution (Thermo, 37528) was added at 200 μL/well for blocking, and the plate was incubated at 37° C. for 2 h. After the blocking was complete, the blocking solution was discarded, and the plate was washed 3 times with a PBST buffer (pH 7.4 PBS containing 0.1 % tween-20) for later use. After the biotin-labeled ligand protein at a fixed concentration was mixed with an antibody or fusion protein diluted in a gradient, the mixture was pre-incubated at 37° C. for 30 min and then added to the blocked microplate. The plate was incubated at 37° C. for 1.5 h. After the incubation was complete, the plate was washed 3 times with PBST. Streptavidin-HRP (Invitrogen, 434323, diluted at 1:4000) was added at 100 μL/well, and the plate was incubated at 37° C. for 1 h. The supernatant was removed. After the plate was washed 3 times with PBST, TMB chromogenic substrate (KPL, 5120-0077) was added at 100 μL/well, and the plate was incubated at room temperature for 10⁻¹⁵ min. 1 M H₂SO₄ was added at 50 μL/well to terminate the reaction. The absorbance values at 450 nm were taken using a microplate reader. Curves for the inhibition of binding of the ligands to the receptors were fitted using software, and the IC₅₀ values were calculated.

[8] = target: T4, human APRIL (R&D Systems, 5860-AP-010/CF) (human, UniProt O75888 105-250, limits assumed); assay: cell-based or functional assay
T4 sequence (looked up): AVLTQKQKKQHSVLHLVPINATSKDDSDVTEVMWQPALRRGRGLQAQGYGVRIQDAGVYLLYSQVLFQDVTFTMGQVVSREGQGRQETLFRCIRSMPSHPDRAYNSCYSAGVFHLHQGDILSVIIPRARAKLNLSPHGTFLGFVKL

[9] = target: BAFF (R&D Systems, 7537-BF); assay: cell-based or functional assay
[10] = target: T5, human BAFF (ACROBiosystems, BAF-H52D4) (human, UniProt Q9Y275 134-285); assay: ELISA, sample coated, BAFF titrated, anti-His-HRP
T5 construct: detected with anti-His-HRP
Description: as §1, §2

[11] = target: T6, human BAFF (Sino Biological, 10056-HNCH) (human, UniProt Q9Y275 134-285); assay: SPR (Biacore), Protein A capture of sample, 1:1 model
T6 construct: also called BAFF protein
Description: as §3

[12] = target: cynomolgus monkey BAFF (Kactus, BAF-CM412) (cynomolgus monkey, UniProt A0A2K5V2X4 134-285); assay: as above
Description: as §3

[13] = target: mouse BAFF (Acro Biosystems, BAF-M521y) (mouse, UniProt Q9WU72 127-309, limits assumed); assay: as above
Description: as §3

[14] = target: T4, human APRIL (R&D Systems, …); assay: as above
Description: as §3

[15] = target: T6, human BAFF (Sino Biological, 10056-HNCH); assay: competition ELISA, blocks BAFF/BCMA; BCMA coated, biotin-BAFF
Description: as §1
as §4, with “After the plate was washed 3 times with PBST, TMB chromogenic substrate (KPL, 5120-0077) was added at 100 μL/well, and the plate was incubated at room temperature for 10⁻¹⁵ min. 1 M H₂SO₄ was added at 50 μL/well to terminate the reaction.” left out

[16] = target: T6, human BAFF (Sino Biological, 10056-HNCH); assay: competition ELISA, blocks BAFF/TACI; TACI coated, biotin-BAFF
Description: as §1
as §4, with “After the plate was washed 3 times with PBST, TMB chromogenic substrate (KPL, 5120-0077) was added at 100 μL/well, and the plate was incubated at room temperature for 10⁻¹⁵ min. 1 M H₂SO₄ was added at 50 μL/well to terminate the reaction.” left out

[17] = target: T4, human APRIL (R&D Systems, …); assay: competition ELISA, blocks APRIL/BCMA; BCMA coated, biotin-APRIL
Description: as §1
as §4, with “After the plate was washed 3 times with PBST, TMB chromogenic substrate (KPL, 5120-0077) was added at 100 μL/well, and the plate was incubated at room temperature for 10⁻¹⁵ min. 1 M H₂SO₄ was added at 50 μL/well to terminate the reaction.” left out

[18] = target: T4, human APRIL (R&D Systems, …); assay: competition ELISA, blocks APRIL/TACI; TACI coated, biotin-APRIL
Description: as §1
as §4, with “After the plate was washed 3 times with PBST, TMB chromogenic substrate (KPL, 5120-0077) was added at 100 μL/well, and the plate was incubated at room temperature for 10⁻¹⁵ min. 1 M H₂SO₄ was added at 50 μL/well to terminate the reaction.” left out

[19] = target: T6, human BAFF (Sino Biological, 10056-HNCH); assay: competition ELISA, blocks BAFF/BAFF-R; BAFF-R coated, biotin-BAFF
Description: as §1
as §4, with “After the plate was washed 3 times with PBST, TMB chromogenic substrate (KPL, 5120-0077) was added at 100 μL/well, and the plate was incubated at room temperature for 10⁻¹⁵ min. 1 M H₂SO₄ was added at 50 μL/well to terminate the reaction.” left out

B1: Hu29-24 (antibody, human IgG1, kappa, L234A L235A)
heavy: not shown
light: DIVLTQSPDSLAVSLGQRATINCRASESVDYYGISSMHWFQQKPGQPPKLLIYRASNLESGIPARFSGSGSRTDFTLTISSLQAEDVAVYYCQQANKDPYTFGGGTKVEIKRTVAAPSVFIFPPSDEQLKSGTASVVCLLNNFYPREAKVQWKVDNALQSGNSQESVTEQDSKDSTYSLSSTLTLSKADYEKHKVYACEVTHQGLSSPVTKSFNRGEC
notes: humanized mAb29, IgG1/kappa
Activity in inhibiting proliferation of BaF3-IL-23R cells (IC50, nM) [1]: 0.178 nM | IC50 for inhibiting IL-17 secretion [2]: 28.9 pM | binding result [3]: no binding | EC50 [4]: 1220 pM | Kd [5]: 85.7 pM | Kd [6]: 14.9 pM | IC50 [7]: 488 pM

B2: RCT-18 (Fc fusion)
chain: SRVDQEERFPQGLWTGVAMRSCPEEQYWDPLLGTCMSCKTICNHQSQRTCAAFCRSLSCRKEQGKFYDHLLRDCISCASICGQHPKQCAYFCENKLRSPVNLPPELDKTHTCPPCPAPEAEGAPSVFLFPPKPKDTLMISRTPEVTCVVVDVSHEDPEVKFNWYVDGVEVHNAKTKPREEQYNSTYRVVSVLTVLHQDWLNGKEYKCKVSNKALPSSIEKTISKAKGQPREPQVYTLPPSRDELTKNQVSLTCLVKGFYPSDIAVEWESNGQPENNYKTTPPVLDSDGSFFLYSKLTVDKSRWQQGNVFSCSVMHEALHNHYTQKSLSLSPGK
notes: control TACI-Fc; also called telitacicept; RC18
Activity in inhibiting proliferation of B cells (IC50, pM), APRIL [8]: 1990 pM | Activity in inhibiting proliferation of B cells (IC50, pM), BAFF [9]: 70.1 pM | EC50 [10]: 21500 pM | Kd [11]: 186 pM | koff [11]: 0.00018 s⁻¹ | kon [11]: 964000 M⁻¹ s⁻¹ | Kd [12]: 258 pM | koff [12]: 9.54e-05 s⁻¹ | kon [12]: 370000 M⁻¹ s⁻¹ | Kd [13]: 121 pM | koff [13]: 8.98e-05 s⁻¹ | kon [13]: 740000 M⁻¹ s⁻¹ | Kd [14]: 43.9 pM | koff [14]: 0.00753 s⁻¹ | kon [14]: 1.72e+08 M⁻¹ s⁻¹ | IC50 [15]: 4860 pM | IC50 [16]: 6070 pM | IC50 [17]: 484000 pM | IC50 [18]: 64900 pM | IC50 [19]: 7570 pM
